{
  "source": "the supplement of paper PMC11316812",
  "key": {"MCF7": {"tested_on": "MCF7", "assay": "percentage of EdU-negative (G0-arrested) nuclei per well, 72 h; higher = more G0 arrest", "conditions": "reference: sequence is the full UniProt precursor, the tested protein was the secreted form or ectodomain"}, "hTERT-HMEC": {"tested_on": "hTERT-HMEC", "assay": "percentage of EdU-negative (G0-arrested) nuclei per well, 72 h; higher = more G0 arrest", "conditions": "reference: sequence is the full UniProt precursor, the tested protein was the secreted form or ectodomain"}, "[1]": {"conditions": "protein concentration 0.03125 µM"}, "[2]": {"conditions": "protein concentration 0.3125 µM"}, "[3]": {"conditions": "protein concentration 0.0133825 µM"}, "[4]": {"conditions": "protein concentration 0.133825 µM"}, "[5]": {"conditions": "protein concentration 0.0165714 µM"}, "[6]": {"conditions": "protein concentration 0.165714 µM"}, "[7]": {"conditions": "protein concentration 0.0285714 µM"}, "[8]": {"conditions": "protein concentration 0.285714 µM"}, "[9]": {"conditions": "protein concentration 0.0357143 µM"}, "[10]": {"conditions": "protein concentration 0.357143 µM"}, "[11]": {"conditions": "protein concentration 0.0225 µM"}},
  "note": "± gives the standard deviation of the averaged measurements.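 Also: secreted proteins added to cultured cells, EdU pulse at the end, nuclei found by Hoechst imaging, EdU status from nuclear versus surrounding ring intensity ratio, PBS as neutral control.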",
  "data": [
    {"sequence": "MGPLSAPPCTQHITWKGLLLTASLLNFWNLPITAQVTIEALPPKVSEGKDVLLLVHNLPQNLAGYIWYKGQLMDLYHYITSYVVDGQINIYGPAYTGRETVYSNASLLIQNVTREDAGSYTLHIIKRGDRTRGVTGYFTFNLYLKLPKPYITINNSKPRENKDVLAFTCEPKSENYTYIWWLNGQSLPVSPRVKRPIENRILILPSVTRNETGPYECEIRDRDGGMRSDPVTLNVLYGPDLPSIYPSFTYYRSGENLYLSCFAESNPPAEYFWTINGKFQQSGQKLSIPQITTKHRGLYTCSVRNSATGKESSKSMTVEVSAPSGIGRLPLLNPI", "values": [
      {"measurement": "percentage of EdU-negative", "setting": "MCF7; [1]", "result": "24.6 ± 2.5", "unit": "%"},
      {"measurement": "percentage of EdU-negative", "setting": "MCF7; [2]", "result": "26.86 ± 0.057", "unit": "%"},
      {"measurement": "percentage of EdU-negative", "setting": "hTERT-HMEC; [1]", "result": "4.75 ± 0.52", "unit": "%"},
      {"measurement": "percentage of EdU-negative", "setting": "hTERT-HMEC; [2]", "result": "4.28 ± 0.12", "unit": "%"}
    ]},
    {"sequence": "MGPLSAPPCTQHITWKGLLLTASLLNFWNLPTTAQVIIEAKPPKVSEGKDVLLLVHNLPQNLTGYIWYKGQMTDLYHYITSYVVHGQIIYGPAYSGRETVYSNASLLIQNVTQEDAGSYTLHIIKRGDGTGGVTGYFTVTLYSETPKPSISSSNLNPREVMEAVRLICDPETPDASYLWLLNGQNLPMTHRLQLSKTNRTLYLFGVTKYIAGPYECEIRNPVSASRSDPVTLNLLPKLPMPYITINNLNPREKKDVLAFTCEPKSRNYTYIWWLNGQSLPVSPRVKRPIENRILILPSVTRNETGPYQCEIRDRYGGIRSNPVTLNVLYGPDLPRIYPSFTYYRSGENLDLSCFADSNPPAEYSWTINGKFQLSGQKLFIPQITTNHSGLYACSVRNSATGKEISKSMIVKVSETASPQVTYAGPNTWFQEILLL", "values": [
      {"measurement": "percentage of EdU-negative", "setting": "MCF7; [3]", "result": "24.7 ± 1.5", "unit": "%"},
      {"measurement": "percentage of EdU-negative", "setting": "MCF7; [4]", "result": "27.3 ± 1.4", "unit": "%"},
      {"measurement": "percentage of EdU-negative", "setting": "hTERT-HMEC; [3]", "result": "4.917 ± 0.044", "unit": "%"},
      {"measurement": "percentage of EdU-negative", "setting": "hTERT-HMEC; [4]", "result": "5.76 ± 1.7", "unit": "%"}
    ]},
    {"sequence": "MGPLSAPPCTQRITWKGLLLTALLLNFWNLPTTAQVTIEAEPTKVSKGKDVLLLVHNLPQNLAGYIWYKGQMKDLYHYITSYVVDGQIIIYGPAYSGRETVYSNASLLIQNVTREDAGSYTLHIVKRGDGTRGETGHFTFTLYLETPKPSISSSNLYPREDMEAVSLTCDPETPDASYLWWMNGQSLPMTHSLQLSKNKRTLFLFGVTKYTAGPYECEIRNPVSASRSDPVTLNLLPKLPKPYITINNLNPRENKDVLAFTCEPKSENYTYIWWLNGQSLPVSPRVKRPIENRILILPSVTRNETGPYQCEIQDRYGGIRSYPVTLNVLYGPDLPRIYPSFTYYHSGENLYLSCFADSNPPAEYSWTINGKFQLSGQKLFIPQITTKHSGLYACSVRNSATGMESSKSMTVKVSAPSGTGHLPGLNPL", "values": [
      {"measurement": "percentage of EdU-negative", "setting": "MCF7; [5]", "result": "24.4 ± 1.2", "unit": "%"},
      {"measurement": "percentage of EdU-negative", "setting": "MCF7; [6]", "result": "24.3 ± 0.28", "unit": "%"},
      {"measurement": "percentage of EdU-negative", "setting": "hTERT-HMEC; [5]", "result": "4.85 ± 0.26", "unit": "%"},
      {"measurement": "percentage of EdU-negative", "setting": "hTERT-HMEC; [6]", "result": "5.01 ± 0.47", "unit": "%"}
    ]},
    {"sequence": "MGPLSAPPCTQRITWKGVLLTASLLNFWNPPTTAQVTIEAQPPKVSEGKDVLLLVHNLPQNLAGYIWYKGQMTYLYHYITSYVVDGQRIIYGPAYSGRERVYSNASLLIQNVTQEDAGSYTLHIIKRRDGTGGVTGHFTFTLHLETPKPSISSSNLNPREAMEAVILTCDPATPAASYQWWMNGQSLPMTHRLQLSKTNRTLFIFGVTKYIAGPYECEIRNPVSASRSDPVTLNLLPKLSKPYITINNLNPRENKDVLTFTCEPKSKNYTYIWWLNGQSLPVSPRVKRPIENRILILPNVTRNETGPYQCEIRDRYGGIRSDPVTLNVLYGPDLPSIYPSFTYYRSGENLYLSCFAESNPRAQYSWTINGKFQLSGQKLSIPQITTKHSGLYACSVRNSATGKESSKSITVKVSDWILP", "values": [
      {"measurement": "percentage of EdU-negative", "setting": "MCF7; [7]", "result": "25.3 ± 1.1", "unit": "%"},
      {"measurement": "percentage of EdU-negative", "setting": "MCF7; [8]", "result": "30.6 ± 3.2", "unit": "%"},
      {"measurement": "percentage of EdU-negative", "setting": "hTERT-HMEC; [7]", "result": "4.04 ± 0.52", "unit": "%"},
      {"measurement": "percentage of EdU-negative", "setting": "hTERT-HMEC; [8]", "result": "11.7 ± 1.3", "unit": "%"}
    ]},
    {"sequence": "MGPPPGAGVSCRGGCGFSRLLAWCFLLALSPQAPGSRGAEAVWTAYLNVSWRVPHTGVNRTVWELSEEGVYGQDSPLEPVAGVLVPPDGPGALNACNPHTNFTVPTVWGSTVQVSWLALIQRGGGCTFADKIHLAYERGASGAVIFNFPGTRNEVIPMSHPGAVDIVAIMIGNLKGTKILQSIQRGIQVTMVIEVGKKHGPWVNHYSIFFVSVSFFIITAATVGYFIFYSARRLRNARAQSRKQRQLKADAKKAIGRLQLRTLKQGDKEIGPDGDSCAVCIELYKPNDLVRILTCNHIFHKTCVDPWLLEHRTCPMCKCDILKALGIEVDVEDGSVSLQVPVSNEISNSASSHEEDNRSETASSGYASVQGTDEPPLEEHVQSTNESLQLVNHEANSVAVDVIPHVDNPTFEEDETPNQETAVREIKS [Q8TEB7]", "values": [
      {"measurement": "percentage of EdU-negative", "setting": "MCF7; [9]", "result": "24.4 ± 1.5", "unit": "%"},
      {"measurement": "percentage of EdU-negative", "setting": "MCF7; [10]", "result": "31.5 ± 1.1", "unit": "%"},
      {"measurement": "percentage of EdU-negative", "setting": "hTERT-HMEC; [9]", "result": "4.65 ± 0.73", "unit": "%"},
      {"measurement": "percentage of EdU-negative", "setting": "hTERT-HMEC; [10]", "result": "10.2 ± 2.7", "unit": "%"}
    ]},
    {"sequence": "MGPPSASPHRECIPWQGLLLTASLLNFWNPPTTAKLTIESMPLSVAEGKEVLLLVHNLPQHLFGYSWYKGERVDGNSLIVGYVIGTQQATPGAAYSGRETIYTNASLLIQNVTQNDIGFYTLQVIKSDLVNEEATGQFHVYQENAPGLPVGAVAGIVTGVLVGVALVAALVCFLLLAKTGRTSIQRDLKEQQPQALAPGRGPSHSSAFSMSPLSTAQAPLPNPRTAASIYEELLKHDTNIYCRMDHKAEVAS", "values": [
      {"measurement": "percentage of EdU-negative", "setting": "MCF7; [11]", "result": "25 ± 3.7", "unit": "%"},
      {"measurement": "percentage of EdU-negative", "setting": "MCF7; protein concentration 0.225 µM", "result": "25.4 ± 1.4", "unit": "%"},
      {"measurement": "percentage of EdU-negative", "setting": "hTERT-HMEC; [11]", "result": "5.43 ± 0.36", "unit": "%"},
      {"measurement": "percentage of EdU-negative", "setting": "hTERT-HMEC; protein concentration 0.225 µM", "result": "5.03 ± 0.028", "unit": "%"}
    ]}
  ]
}
